# In publication PMC8608799, “The main oxidative inactivation pathway of the plant hormone auxin” (Nature Communications, 2021):
# Legend:
# Assay type in all cases: biochemical, Arabidopsis thaliana
# Conditions in all cases: 1 mM MnCl2, 0.5 mM dithiothreitol, 50 mM Tris-HCl pH 7.4, 32 °C
# [1] = test system: O=C(O)CC[C@H](NC(=O)Cc1c[nH]c2ccccc12)C(=O)O; test: HPLC of hydrolysis product, kinetics
# [2] = test system: O=C(O)C[C@H](NC(=O)CC1C(=O)Nc2ccccc21)C(=O)O; test: HPLC of hydrolysis product, kinetics
# [3] = test system: O=C(O)C[C@H](NC(=O)Cc1c[nH]c2ccccc12)C(=O)O; test: HPLC of hydrolysis product, kinetics
# [4] = test system: O=C(O)CC[C@H](NC(=O)CC1C(=O)Nc2ccccc21)C(=O)O; test: HPLC of hydrolysis product, Lineweaver-Burk
# GST-ILR1 (Arabidopsis thaliana), sequence (chain, as listed by the source): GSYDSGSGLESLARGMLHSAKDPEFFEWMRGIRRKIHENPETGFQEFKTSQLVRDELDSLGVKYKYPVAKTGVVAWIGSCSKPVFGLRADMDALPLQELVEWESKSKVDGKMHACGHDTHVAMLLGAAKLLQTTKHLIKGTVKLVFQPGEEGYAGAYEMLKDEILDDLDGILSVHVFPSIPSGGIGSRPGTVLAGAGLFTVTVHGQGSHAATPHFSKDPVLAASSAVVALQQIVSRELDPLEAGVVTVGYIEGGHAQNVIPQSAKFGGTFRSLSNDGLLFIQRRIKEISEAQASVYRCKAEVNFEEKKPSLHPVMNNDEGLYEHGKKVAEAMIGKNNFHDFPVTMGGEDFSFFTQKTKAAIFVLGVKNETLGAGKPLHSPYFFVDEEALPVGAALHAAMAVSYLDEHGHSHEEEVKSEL
substance,measurement,setting,value
GST-ILR1 (Arabidopsis thaliana),Km,[1],59.9723 ± 7.5726 µM
same,kcat,[1],0.021 s⁻¹
same,Km,[2],130.125 ± 25.3236 µM
same,kcat,[2],0.0036 s⁻¹
same,Km,[3],340.087 ± 41.4597 µM
same,kcat,[3],0.0025 s⁻¹
same,Km,[4],2.71 ± 0.34 µM
same,kcat,[4],0.0089 s⁻¹
